Measurements reported in the Human Domainome abundance scans (Beltran et al. 2025).

B1: Membrane-associated guanylate kinase, WW and PDZ domain-containing protein 3, residues 287 to 329; numbered along this chain, Q5TCQ9 (parent)
chain: MRDETLEPLPKNWEMAYTDTGMIYFIDHNTKTTTWLDPRLCKK

Variants of: B1
Assay: abundance fitness (aPCA) (normalised: wild type 0, dead -1); higher = more abundant; growth selection in yeast, the domain comes from the species named
Conditions: Homo sapiens

Abundance fitness of substitutions, site by site:
P38: H -0.806; Y -1.17; K -0.994; R -0.954; N -1.04; D -0.854; T -0.897; G -0.902; A -0.899; E -1.02
T34: C -0.64; W -0.743; I -1.02; Y -0.982; Q -0.28; M -0.62; L -1.21; R -0.71; G -0.667; V -0.924; N -0.661; K -0.719; S -0.106; P -0.906; A -0.632; E -0.677
K42: Y -0.223; P -0.094; Q -0.056; S -0.063; R -0.038; F -0.242; V -0.099; L -0.086; M -0.1; C -0.146; I -0.097; D 0.002; T -0.029; W -0.115; N -0.168; G -0.014; A 0.018; H -0.081; E 0.056
T32: K -0.303; L -0.152; D -0.47; A -0.207; V -0.082; Y -0.417; G -0.357; Q -0.137; W -0.52; I -0.11; H -0.438; E -0.328; P -0.879; R -0.206; M -0.071; N -0.215; C -0.101
R39: P -0.516; N -0.476; A -0.233; D -0.317; I -0.332; T -0.22; Q -0.417; C -0.322; E -0.244; L -0.349; S -0.259; K -0.309; M -0.33; G -0.314; F -0.635; V -0.301
W35: R -0.266; I -0.257; Q -0.232; H -0.447; G -0.341; P -0.34; V -0.291; Y 0.126; S -0.199; L -0.146; C -0.222; E -0.361; N -0.339; A -0.248; T -0.104; F 0.074; M -0.16; D -0.359
T30: W -0.572; L -0.207; Q -0.139; S -0.051; M -0.21; K -0.155; P -0.887
D37: M -1.02; C -0.459; E -0.556; A -0.436; W -0.616; R -0.263; V -0.926; H -0.166; K -0.407; S -0.188; Y -0.731; G -0.557; Q -0.486; I -1.04; N -0.235; P -0.168
L36: E -0.097; Y -0.077; R -0.013; W -0.061; V -0.019; G -0.144; H -0.037; T -0.078; M -0.001; F -0.088; I -0.07; A -0.044; Q -0.03; D -0.183; N -0.121; C -0.099
L40: M -0.069; N 0.041; T -0.085; R -0.02; G -0.028; Q -0.014; D -0.039; E 0.022; C -0.033; S -0.053; V 0; A -0.019; Y -0.193; P -0.118; I -0.102; K 0.016
K31: T -0.214; N -0.159; Q -0.004; W -0.278; E -0.035; R -0.017; C -0.09; D -0.205; G -0.09; I -0.674; V -0.385; P -0.812; L -0.182; Y -0.369; M -0.071; H 0.018
